Measurements taken from paper PMC3334620.

What follows are sequences tested against T1, Stb5 (Saccharomyces cerevisiae) (UniProt P38699). Conditions: 200 nM.
T1 sequence: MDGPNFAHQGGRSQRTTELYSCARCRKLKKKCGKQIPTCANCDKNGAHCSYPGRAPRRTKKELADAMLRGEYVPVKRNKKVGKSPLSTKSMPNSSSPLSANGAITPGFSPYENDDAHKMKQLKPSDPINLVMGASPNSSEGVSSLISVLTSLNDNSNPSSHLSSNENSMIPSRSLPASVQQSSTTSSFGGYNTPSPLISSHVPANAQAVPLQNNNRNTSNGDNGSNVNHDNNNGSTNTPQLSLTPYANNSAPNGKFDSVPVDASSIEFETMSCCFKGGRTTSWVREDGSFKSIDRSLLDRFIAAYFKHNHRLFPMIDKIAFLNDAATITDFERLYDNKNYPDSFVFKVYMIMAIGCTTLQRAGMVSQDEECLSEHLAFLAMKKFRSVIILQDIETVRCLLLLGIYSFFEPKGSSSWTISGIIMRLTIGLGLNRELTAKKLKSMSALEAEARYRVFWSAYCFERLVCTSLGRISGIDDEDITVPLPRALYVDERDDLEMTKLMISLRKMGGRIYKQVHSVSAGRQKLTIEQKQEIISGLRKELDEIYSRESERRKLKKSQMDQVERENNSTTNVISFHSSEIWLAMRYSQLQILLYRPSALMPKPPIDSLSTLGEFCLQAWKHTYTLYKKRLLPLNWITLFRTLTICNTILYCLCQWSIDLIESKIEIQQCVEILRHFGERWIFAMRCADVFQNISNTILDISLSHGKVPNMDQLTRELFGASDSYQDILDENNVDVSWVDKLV
In the case of “AAACACCG (double strand) [8-mer AAACACCG]”, the binding signal (PBM E-score (-0.5 to 0.5)) is reported as 0.491.
Sequence “AACACCGC (double strand) [8-mer AACACCGC]” has a binding signal (PBM E-score (-0.5 to 0.5)) of 0.48.
Sequence “AACCCCGC (double strand) [8-mer AACCCCGC]” has a binding signal (PBM E-score (-0.5 to 0.5)) of 0.484.
Work on “CGGACTTA (double strand) [8-mer CGGACTTA]” yielded a binding signal (PBM E-score (-0.5 to 0.5)) of 0.483.
With “CGGAGATA (double strand) [8-mer CGGAGATA]” the binding signal (PBM E-score (-0.5 to 0.5)) was 0.48.
“CGGCACTA (double strand) [8-mer CGGCACTA]” showed a binding signal (PBM E-score (-0.5 to 0.5)) of 0.481.
“CGGCATTA (double strand) [8-mer CGGCATTA]” showed a binding signal (PBM E-score (-0.5 to 0.5)) of 0.489.
“CGGCCTTA (double strand) [8-mer CGGCCTTA]” gave a binding signal (PBM E-score (-0.5 to 0.5)) of 0.481.
“CGGCGTTA (double strand) [8-mer CGGCGTTA]” was tested, and the binding signal (PBM E-score (-0.5 to 0.5)) was 0.49.
“CGGGGTTA (double strand) [8-mer CGGGGTTA]” gave a binding signal (PBM E-score (-0.5 to 0.5)) of 0.495.
For “CGGTCTTA (double strand) [8-mer CGGTCTTA]”, the binding signal (PBM E-score (-0.5 to 0.5)) was 0.48.
“CGGTGATA (double strand) [8-mer CGGTGATA]” gave a binding signal (PBM E-score (-0.5 to 0.5)) of 0.488.
Sequence “CGGTGCTA (double strand) [8-mer CGGTGCTA]” has a binding signal (PBM E-score (-0.5 to 0.5)) of 0.488.
In the case of “CGGTGTTA (double strand) [8-mer CGGTGTTA]”, the binding signal (PBM E-score (-0.5 to 0.5)) is reported as 0.496.

What follows are sequences tested against T2, Sko1 (Saccharomyces cerevisiae) (UniProt Q02100). Conditions: 200 nM.
T2 sequence: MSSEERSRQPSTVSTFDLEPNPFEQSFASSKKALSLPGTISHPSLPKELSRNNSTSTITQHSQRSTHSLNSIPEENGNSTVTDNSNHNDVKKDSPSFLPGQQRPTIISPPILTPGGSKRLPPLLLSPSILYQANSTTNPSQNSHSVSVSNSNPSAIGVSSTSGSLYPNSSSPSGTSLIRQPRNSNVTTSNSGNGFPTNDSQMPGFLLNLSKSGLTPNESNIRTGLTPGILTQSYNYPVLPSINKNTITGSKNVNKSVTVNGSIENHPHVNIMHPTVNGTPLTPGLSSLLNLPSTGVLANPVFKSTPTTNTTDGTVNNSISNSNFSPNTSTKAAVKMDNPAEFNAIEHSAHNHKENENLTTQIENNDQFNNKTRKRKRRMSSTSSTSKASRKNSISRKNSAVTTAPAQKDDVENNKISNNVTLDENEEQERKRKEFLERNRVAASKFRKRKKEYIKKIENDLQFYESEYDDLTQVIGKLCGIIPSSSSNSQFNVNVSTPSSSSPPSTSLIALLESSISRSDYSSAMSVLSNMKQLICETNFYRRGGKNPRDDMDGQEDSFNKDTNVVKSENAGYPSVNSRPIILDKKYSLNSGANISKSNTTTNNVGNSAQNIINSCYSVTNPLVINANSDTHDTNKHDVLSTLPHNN
With “AATGACGT (double strand) [8-mer AATGACGT]” the binding signal (PBM E-score (-0.5 to 0.5)) was 0.498.
“ACGTCATA (double strand) [8-mer ACGTCATA]” showed a binding signal (PBM E-score (-0.5 to 0.5)) of 0.498.
With “ACGTCATC (double strand) [8-mer ACGTCATC]” the binding signal (PBM E-score (-0.5 to 0.5)) was 0.498.
“ACGTCATG (double strand) [8-mer ACGTCATG]” gave a binding signal (PBM E-score (-0.5 to 0.5)) of 0.497.
For “ATACGTCA (double strand) [8-mer ATACGTCA]”, the binding signal (PBM E-score (-0.5 to 0.5)) was 0.494.
Sequence “ATGACGTA (double strand) [8-mer ATGACGTA]” has a binding signal (PBM E-score (-0.5 to 0.5)) of 0.5.
For “ATGACGTC (double strand) [8-mer ATGACGTC]”, the binding signal (PBM E-score (-0.5 to 0.5)) was 0.497.
Work on “ATGACGTG (double strand) [8-mer ATGACGTG]” yielded a binding signal (PBM E-score (-0.5 to 0.5)) of 0.496.
“CTACGTCA (double strand) [8-mer CTACGTCA]” gave a binding signal (PBM E-score (-0.5 to 0.5)) of 0.493.
In the case of “GTGACGTA (double strand) [8-mer GTGACGTA]”, the binding signal (PBM E-score (-0.5 to 0.5)) is reported as 0.494.
Sequence “TGACGTCA (double strand) [8-mer TGACGTCA]” has a binding signal (PBM E-score (-0.5 to 0.5)) of 0.499.

What follows are sequences tested against T3, Stp1 (Saccharomyces cerevisiae) (UniProt Q00947). Conditions: 200 nM.
T3 sequence: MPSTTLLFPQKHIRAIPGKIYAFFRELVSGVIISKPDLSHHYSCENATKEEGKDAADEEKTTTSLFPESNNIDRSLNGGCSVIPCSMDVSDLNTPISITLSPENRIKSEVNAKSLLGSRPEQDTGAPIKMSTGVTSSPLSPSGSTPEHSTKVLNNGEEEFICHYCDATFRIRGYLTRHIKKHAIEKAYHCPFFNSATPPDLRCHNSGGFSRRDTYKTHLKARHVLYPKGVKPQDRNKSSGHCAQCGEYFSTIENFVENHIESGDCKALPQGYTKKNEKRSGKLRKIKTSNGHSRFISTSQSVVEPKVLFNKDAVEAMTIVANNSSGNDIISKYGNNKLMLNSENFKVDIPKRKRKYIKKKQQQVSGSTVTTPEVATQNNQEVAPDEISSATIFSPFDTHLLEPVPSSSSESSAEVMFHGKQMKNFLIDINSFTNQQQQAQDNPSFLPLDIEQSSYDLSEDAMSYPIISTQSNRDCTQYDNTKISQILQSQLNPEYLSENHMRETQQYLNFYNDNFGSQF
For “ACACGGCA (double strand) [8-mer ACACGGCA]”, the binding signal (PBM E-score (-0.5 to 0.5)) was 0.49.
“ACGGCACT (double strand) [8-mer ACGGCACT]” was tested, and the binding signal (PBM E-score (-0.5 to 0.5)) was 0.489.
Sequence “ACGGCGCC (double strand) [8-mer ACGGCGCC]” has a binding signal (PBM E-score (-0.5 to 0.5)) of 0.49.
In the case of “ACGGCGCG (double strand) [8-mer ACGGCGCG]”, the binding signal (PBM E-score (-0.5 to 0.5)) is reported as 0.492.
In the case of “ATACGGCG (double strand) [8-mer ATACGGCG]”, the binding signal (PBM E-score (-0.5 to 0.5)) is reported as 0.49.
With “CACGGCAC (double strand) [8-mer CACGGCAC]” the binding signal (PBM E-score (-0.5 to 0.5)) was 0.491.

The sequences below were run against T4, Msn1 (Saccharomyces cerevisiae) (UniProt P22148). Conditions: 200 nM.
T4 sequence: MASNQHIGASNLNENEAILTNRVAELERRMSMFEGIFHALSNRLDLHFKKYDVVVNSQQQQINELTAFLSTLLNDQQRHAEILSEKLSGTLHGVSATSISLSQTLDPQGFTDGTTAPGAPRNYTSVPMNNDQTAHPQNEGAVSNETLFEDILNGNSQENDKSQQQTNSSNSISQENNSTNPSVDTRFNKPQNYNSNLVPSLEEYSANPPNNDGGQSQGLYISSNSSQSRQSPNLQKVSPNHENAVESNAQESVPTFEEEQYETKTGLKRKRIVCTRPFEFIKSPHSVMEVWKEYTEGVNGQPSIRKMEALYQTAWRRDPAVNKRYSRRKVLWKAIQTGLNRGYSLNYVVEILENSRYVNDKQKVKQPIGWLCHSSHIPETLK
Sequence “ATGTCCTA (double strand) [8-mer ATGTCCTA]” has a binding signal (PBM E-score (-0.5 to 0.5)) of 0.497.
“ATTTGTCC (double strand) [8-mer ATTTGTCC]” showed a binding signal (PBM E-score (-0.5 to 0.5)) of 0.498.
Sequence “GAATGTCC (double strand) [8-mer GAATGTCC]” has a binding signal (PBM E-score (-0.5 to 0.5)) of 0.494.
With “GGACAAAA (double strand) [8-mer GGACAAAA]” the binding signal (PBM E-score (-0.5 to 0.5)) was 0.494.
“GGACAAAC (double strand) [8-mer GGACAAAC]” was tested, and the binding signal (PBM E-score (-0.5 to 0.5)) was 0.491.
“GGGACAAA (double strand) [8-mer GGGACAAA]” was tested, and the binding signal (PBM E-score (-0.5 to 0.5)) was 0.496.
Work on “TGGACAAA (double strand) [8-mer TGGACAAA]” yielded a binding signal (PBM E-score (-0.5 to 0.5)) of 0.493.

What follows are sequences tested against T5, Pdr3 (Saccharomyces cerevisiae) (UniProt P33200). Conditions: 200 nM.
T5 sequence: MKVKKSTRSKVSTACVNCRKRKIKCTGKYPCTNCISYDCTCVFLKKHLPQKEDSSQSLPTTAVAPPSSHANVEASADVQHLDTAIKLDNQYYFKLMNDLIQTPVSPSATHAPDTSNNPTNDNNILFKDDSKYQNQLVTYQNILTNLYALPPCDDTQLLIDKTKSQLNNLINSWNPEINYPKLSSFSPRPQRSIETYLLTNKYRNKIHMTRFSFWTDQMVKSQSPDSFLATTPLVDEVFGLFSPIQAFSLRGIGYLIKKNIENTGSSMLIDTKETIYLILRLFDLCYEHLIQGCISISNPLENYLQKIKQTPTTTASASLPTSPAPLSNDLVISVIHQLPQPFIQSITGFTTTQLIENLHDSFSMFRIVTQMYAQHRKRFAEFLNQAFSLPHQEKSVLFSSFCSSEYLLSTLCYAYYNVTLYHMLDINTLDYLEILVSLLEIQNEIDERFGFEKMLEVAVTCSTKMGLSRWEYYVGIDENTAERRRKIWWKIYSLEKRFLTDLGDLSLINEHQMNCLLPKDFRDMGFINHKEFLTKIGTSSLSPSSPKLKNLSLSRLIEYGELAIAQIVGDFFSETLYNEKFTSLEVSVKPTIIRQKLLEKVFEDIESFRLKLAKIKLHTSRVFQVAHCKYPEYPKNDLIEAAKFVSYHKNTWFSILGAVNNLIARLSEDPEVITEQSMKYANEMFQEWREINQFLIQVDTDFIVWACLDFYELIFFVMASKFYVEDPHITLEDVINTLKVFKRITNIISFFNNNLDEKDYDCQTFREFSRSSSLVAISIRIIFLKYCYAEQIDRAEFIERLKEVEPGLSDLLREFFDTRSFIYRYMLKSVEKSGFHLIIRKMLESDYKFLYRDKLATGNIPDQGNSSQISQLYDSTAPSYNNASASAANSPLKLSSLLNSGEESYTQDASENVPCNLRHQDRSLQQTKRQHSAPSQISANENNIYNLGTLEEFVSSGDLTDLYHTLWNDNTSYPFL
Work on “AACGGAAC (double strand) [8-mer AACGGAAC]” yielded a binding signal (PBM E-score (-0.5 to 0.5)) of 0.49.
“ACCCGCGG (double strand) [8-mer ACCCGCGG]” gave a binding signal (PBM E-score (-0.5 to 0.5)) of 0.497.
For “ATCCGCGG (double strand) [8-mer ATCCGCGG]”, the binding signal (PBM E-score (-0.5 to 0.5)) was 0.496.
For “CCCCGCGG (double strand) [8-mer CCCCGCGG]”, the binding signal (PBM E-score (-0.5 to 0.5)) was 0.492.
For “CCCGCGGA (double strand) [8-mer CCCGCGGA]”, the binding signal (PBM E-score (-0.5 to 0.5)) was 0.498.
Sequence “CCCGCGGG (double strand) [8-mer CCCGCGGG]” has a binding signal (PBM E-score (-0.5 to 0.5)) of 0.498.
“CCGCGGAA (double strand) [8-mer CCGCGGAA]” was tested, and the binding signal (PBM E-score (-0.5 to 0.5)) was 0.499.
For “CCGCGGAC (double strand) [8-mer CCGCGGAC]”, the binding signal (PBM E-score (-0.5 to 0.5)) was 0.495.
“CCGCGGAG (double strand) [8-mer CCGCGGAG]” showed a binding signal (PBM E-score (-0.5 to 0.5)) of 0.498.
With “CCGCGGCA (double strand) [8-mer CCGCGGCA]” the binding signal (PBM E-score (-0.5 to 0.5)) was 0.49.
“CCGCGGGA (double strand) [8-mer CCGCGGGA]” gave a binding signal (PBM E-score (-0.5 to 0.5)) of 0.499.
“CGCGGAAC (double strand) [8-mer CGCGGAAC]” gave a binding signal (PBM E-score (-0.5 to 0.5)) of 0.491.
For “GCCGCGGA (double strand) [8-mer GCCGCGGA]”, the binding signal (PBM E-score (-0.5 to 0.5)) was 0.495.
